From US20210317178A1 (D AND D PHARMATECH, published 2021) come the findings set out here.

In one experiment the target is human GLP-1 receptor (human, UniProt P43220 24-463). Nature of the experiment: cell-based or functional assay.
Experiment [1] addresses human glucagon receptor (GCGR) (human, UniProt P47871 26-477). Nature of the experiment: cell-based or functional assay.

Positions of bridges follow the written chain, without caps; N, C: chain ends. Non-standard residues stand in square brackets, D forms with d. No end group written: not given here. tri‑branched mPEG‑MAL 50 kDa = tri-branched maleimide-activated monomethoxy PEG, 50 kDa; Aib = CC(C)(N)C(=O)O

Sequence of human glucagon receptor (GCGR) (P47871 26-477): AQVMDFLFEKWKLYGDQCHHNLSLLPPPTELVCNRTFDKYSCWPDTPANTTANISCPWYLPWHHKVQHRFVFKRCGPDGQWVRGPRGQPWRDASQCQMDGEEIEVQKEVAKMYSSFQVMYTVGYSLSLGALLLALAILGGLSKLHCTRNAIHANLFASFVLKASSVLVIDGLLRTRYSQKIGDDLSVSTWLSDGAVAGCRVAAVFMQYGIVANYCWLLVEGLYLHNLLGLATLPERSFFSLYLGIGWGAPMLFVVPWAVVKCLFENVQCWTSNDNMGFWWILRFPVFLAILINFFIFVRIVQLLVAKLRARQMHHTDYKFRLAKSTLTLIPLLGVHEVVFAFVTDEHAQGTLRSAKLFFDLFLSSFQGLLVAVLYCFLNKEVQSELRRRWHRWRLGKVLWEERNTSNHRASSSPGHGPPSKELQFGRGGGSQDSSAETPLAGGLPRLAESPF

As for H[Aib]QGTFTSDYSKYLDEQAAKEFVQWLMNTC(tri‑branched mPEG‑MAL 50 kDa) (lactam 16-20) [conjugate of Example 2 (polypeptide of SEQ ID NO. 2 bound to tri-branched mPEG-MAL, MW 50 kDa)], the “EC50 of GLP-1 receptor (nM); cAMP (luciferase reporter) in HEK293/CRE-Luc cells” value with human GLP-1 receptor was found to be 2.12 nM. Also, in experiment [1], the “EC50 of glucagon receptor (GCGR) (nM); cAMP in CHO-K1 cells” value was 47 nM.
With H[Aib]QGTFTSDYSKYLDEQAAKEFVQWLMNTC (lactam 16-20) [polypeptide of Example 1 (polypeptide into which cysteine was introduced, SEQ ID NO. 2)], the “EC50 of GLP-1 receptor (nM); cAMP (luciferase reporter) in HEK293/CRE-Luc cells” value with human GLP-1 receptor was found to be 0.13 nM. Further, in experiment [1], the “EC50 of glucagon receptor (GCGR) (nM); cAMP in CHO-K1 cells” value is 38.6 nM.
